Test results: paper PMC11203266, “Continuous evolution of compact protein degradation tags regulated by selective molecular glues” (Science (New York, N.Y.), 2024)

Tests used:
[1] = biological target: two-zinc finger construct containing SD0, MBP–Avi–His fusion, biotinylated (UniProt Q13422); test: FRET; saturating pomalidomide; details: complex
[2] = biological target: two-zinc finger construct containing SD0, MBP–Avi–His fusion, biotinylated (UniProt Q13422); test: FRET; pomalidomide titration (compound EC50 of ternary complex formation)
[3] = biological target: DDB1^ΔBPB•CRBN complex (tags cleaved, for BLI) (human) (UniProt Q96SW2); test: BLI; pomalidomide
Chain of DDB1^ΔBPB•CRBN complex (tags cleaved, for BLI) (human) (Q96SW2 whole entry, stated change not applied, chain 1 of 2): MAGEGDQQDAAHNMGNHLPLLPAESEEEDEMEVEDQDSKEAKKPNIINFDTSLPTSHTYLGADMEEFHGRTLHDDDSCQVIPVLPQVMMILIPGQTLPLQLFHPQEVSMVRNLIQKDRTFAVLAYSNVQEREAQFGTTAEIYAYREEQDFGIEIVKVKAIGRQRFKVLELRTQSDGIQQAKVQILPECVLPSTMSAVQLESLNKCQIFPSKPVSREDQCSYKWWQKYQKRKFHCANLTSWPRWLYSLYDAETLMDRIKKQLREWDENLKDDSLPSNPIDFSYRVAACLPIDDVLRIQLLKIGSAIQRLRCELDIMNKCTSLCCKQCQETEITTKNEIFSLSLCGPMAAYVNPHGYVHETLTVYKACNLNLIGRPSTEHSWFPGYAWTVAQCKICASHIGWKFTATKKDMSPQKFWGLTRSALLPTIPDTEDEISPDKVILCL
Chain of DDB1^ΔBPB•CRBN complex (tags cleaved, for BLI) (human) (Q16531 other isoform, or with tags, fused parts or gaps mutant, chain 2 of 2, further chain): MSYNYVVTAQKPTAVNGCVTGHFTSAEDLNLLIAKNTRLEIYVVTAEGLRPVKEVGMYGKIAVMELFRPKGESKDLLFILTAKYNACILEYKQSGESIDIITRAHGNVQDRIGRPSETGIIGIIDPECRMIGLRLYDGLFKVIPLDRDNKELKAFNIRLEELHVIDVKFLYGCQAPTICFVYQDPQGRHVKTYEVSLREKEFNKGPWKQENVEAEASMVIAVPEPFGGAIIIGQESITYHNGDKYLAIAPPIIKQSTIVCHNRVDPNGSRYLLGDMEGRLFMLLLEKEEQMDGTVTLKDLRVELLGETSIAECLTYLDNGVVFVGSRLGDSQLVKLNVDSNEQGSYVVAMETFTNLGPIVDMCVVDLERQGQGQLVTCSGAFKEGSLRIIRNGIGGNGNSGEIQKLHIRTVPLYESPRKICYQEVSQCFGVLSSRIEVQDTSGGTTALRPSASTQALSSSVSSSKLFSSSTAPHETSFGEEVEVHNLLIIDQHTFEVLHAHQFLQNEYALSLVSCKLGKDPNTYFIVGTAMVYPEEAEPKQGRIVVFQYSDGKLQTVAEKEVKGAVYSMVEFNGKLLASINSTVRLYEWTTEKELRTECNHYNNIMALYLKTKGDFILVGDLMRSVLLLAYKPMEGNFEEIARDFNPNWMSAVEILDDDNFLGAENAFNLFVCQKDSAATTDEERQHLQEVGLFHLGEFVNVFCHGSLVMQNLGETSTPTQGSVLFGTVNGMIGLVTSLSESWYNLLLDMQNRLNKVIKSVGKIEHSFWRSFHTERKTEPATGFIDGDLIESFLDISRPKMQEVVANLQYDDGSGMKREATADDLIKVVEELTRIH

Chain of two-zinc finger construct containing SD0, MBP–Avi–His fusion, biotinylated (Q13422 other isoform, or with tags, fused parts or gaps): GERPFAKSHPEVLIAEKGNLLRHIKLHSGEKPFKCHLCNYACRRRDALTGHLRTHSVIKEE

Substance | Kd [1] | EC50 [2] | Kd [3] | koff [3]
CRBN–eGFP•DDB1^ΔBPB (from UniProt Q96SW2 1-442; Q16531 1-395; Q16531 706-1140) | 212 nM | 314 nM |  | 
two-zinc finger construct containing SD0, MBP–Avi–His fusion, biotinylated (from UniProt Q13422 141-145; Q96JP5 450-460; Q13422 157-243) |  |  | 245 nM | 0.071 s⁻¹
